Residue numbers refer to the chain shown, from its start. In names and notes the source's numbering stands.
B1: HPPDm-5-02: nucleotide sequence encoding Avena sativa HPPD with A111T+K351N+F372A+F383W; vector DBN11786 (nucleic acid)
DNA: ATGCCACCTACTCCAGCTACAGCTACTGGTGCTGCTGCTGCTGCCGTTACTCCTGAGCACGCTGCCAGGTCATTCCCCAGGGTGGTTCGCGTGAACCCCAGATCTGATAGGTTCCCAGTTCTGAGCTTCCACCATGTTGAGCTGTGGTGCGCTGATGCTGCTTCTGCTGCTGGCAGGTTCTCTTTCGCTCTTGGTGCTCCACTCGCTGCTAGATCTGATCTGTCTACAGGAAATAGCGCTCATGCCTCACTCCTGCTTCGCTCAGGTGCTTTGGCCTTCCTCTTCACCGCTCCATATGCTCCCCCACCTCAGGAGGCTGCTACTGCTGCTACTACAGCCTCCATTCCAAGCTTCTCAGCTGATGCCGCTAGAACCTTCGCTGCTGCTCATGGACTTGCCGTGAGGTCTGTTGGTGTTCGCGTGGCTGATGCTGCTGAGGCTTTCAGAGTTTCCGTTGCCGGCGGAGCTAGGCCAGCTTTCGCTCCTGCTGATTTGGGACATGGTTTCGGCCTGGCTGAGGTTGAGCTTTACGGTGACGTGGTTCTCCGCTTCGTGTCTTACCCAGATGAGACTGACCTGCCTTTCCTTCCCGGCTTCGAGAGAGTTTCCTCTCCTGGTGCCGTGGATTACGGCCTGACAAGGTTCGACCACGTGGTTGGAAACGTTCCCGAGATGGCTCCAGTGATCGATTACATGAAGGGCTTCCTTGGATTCCATGAGTTCGCCGAGTTCACTGCTGAGGACGTGGGAACCACTGAGTCCGGTTTGAACTCTGTGGTTCTCGCCAACAATTCTGAGGCTGTTTTGCTCCCTCTGAATGAGCCTGTGCATGGAACCAAGAGGAGAAGCCAGATTCAAACTTACCTGGAGTACCACGGTGGCCCTGGAGTTCAGCATATCGCCCTTGCTTCTAATGATGTGTTGCGCACACTCAGAGAGATGCGCGCCAGAACCCCCATGGGAGGTTTCGAGTTCATGGCCCCACCACAGGCTAAGTACTACGAGGGCGTTAGAAGGATTGCTGGAGACGTGTTGAGCGAGGAGCAGATCAATGAGTGCCAAGAGCTGGGTGTTCTTGTGGATAGGGATGACCAGGGCGTTCTGCTTCAAATTGCCACTAAGCCAGTGGGCGACCGCCCTACATTCTGGCTTGAGATGATTCAAAGAATCGGCTGCATGGAGAAGGATGAGGTTGGACAGGAGTACCAAAAGGGCGGATGCGGTGGCTTCGGAAAGGGTAACTTCAGCGAGTTGTTCAAGTCAATCGAGGACTACGAGAAGAGCCTCGAGGTGAAGCAGTCAGTGGTTGCCCAAAAGTCCTGA
modifications: HPPDm-5-02 Nucleotide Sequence
notes: vector DBN11786
B2: HPPDm-6-02: nucleotide sequence encoding Avena sativa HPPD with A106G+K351N+F372A+F383W; vector DBN11787 (nucleic acid)
DNA: B1 DNA with C317G, A331G
modifications: HPPDm-6-02 Nucleotide Sequence
notes: vector DBN11787

Key:
Assay type in all cases: in vivo
[1] = system: Arabidopsis thaliana T1 plants; assay: Isoxaflutole tolerance of transgenic Arabidopsis thaliana T1 plants (spray, bleached leaf area grade, damage score); settings: Table 11; for Classification and statistics of the grade of pesticide damage Grade 0: number of plants at grade 0; for Classification and statistics of the grade of pesticide damage Grade 1: number of plants at grade 1; for Classification and statistics of the grade of pesticide damage Grade 2: number of plants at grade 2; for Classification and statistics of the grade of pesticide damage Grade 3: number of plants at grade 3; for Scores: pesticide damage score;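 as to Scores: Weighted damage index from 0 to 100 where higher means more damage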
Method in brief: (§1)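 Damage graded 0–3 from the proportion of bleached leaf area 7 days after spraying. Plants were glufosinate-selected T1 lines, 18 days after sowing, plus vector and wild-type controls. Rates: mesotrione 52.5–420, isoxaflutole 35–280, topramezone 25–200 g ai/ha, with water (0×).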

[2] = system: Arabidopsis thaliana T1 plants; assay: Topramezone tolerance of transgenic Arabidopsis thaliana T1 plants (spray, bleached leaf area grade, damage score); settings: Table 10; for Classification and statistics of the grade of pesticide damage Grade 0: number of plants at grade 0; for Classification and statistics of the grade of pesticide damage Grade 1: number of plants at grade 1; for Classification and statistics of the grade of pesticide damage Grade 2: number of plants at grade 2; for Classification and statistics of the grade of pesticide damage Grade 3: number of plants at grade 3; for Scores: pesticide damage score
Method in brief: as §1

[3] = system: Arabidopsis thaliana T1 plants; assay: Mesotrione tolerance of transgenic Arabidopsis thaliana T1 plants (spray, bleached leaf area grade, damage score); design: Scores: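 damage score 0-100 computed as Σ(N×S)/(T×M)×100 over grades 0-3 with higher meaning more damage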; settings: Table 12; for Classification and statistics of the grade of pesticide damage Grade 0: number of plants at grade 0; for Classification and statistics of the grade of pesticide damage Grade 1: number of plants at grade 1; for Classification and statistics of the grade of pesticide damage Grade 2: number of plants at grade 2; for Classification and statistics of the grade of pesticide damage Grade 3: number of plants at grade 3; for Scores: pesticide damage score
Method in brief: as §1

Molecule	Resistance evaluation ([1]; isoxaflutole 140 g ai/ha (2×))	Classification and statistics of the grade of pesticide damage Grade 0 ([1]; isoxaflutole 140 g ai/ha (2×))	Classification and statistics of the grade of pesticide damage Grade 1 ([1]; isoxaflutole 140 g ai/ha (2×))	Classification and statistics of the grade of pesticide damage Grade 2 ([1]; isoxaflutole 140 g ai/ha (2×))	Classification and statistics of the grade of pesticide damage Grade 3 ([1]; isoxaflutole 140 g ai/ha (2×))	Scores ([1]; isoxaflutole 140 g ai/ha (2×))	Resistance evaluation ([1]; isoxaflutole 280 g ai/ha (4×))	Classification and statistics of the grade of pesticide damage Grade 0 ([1]; isoxaflutole 280 g ai/ha (4×))	Classification and statistics of the grade of pesticide damage Grade 1 ([1]; isoxaflutole 280 g ai/ha (4×))	Classification and statistics of the grade of pesticide damage Grade 2 ([1]; isoxaflutole 280 g ai/ha (4×))	Classification and statistics of the grade of pesticide damage Grade 3 ([1]; isoxaflutole 280 g ai/ha (4×))	Scores ([1]; isoxaflutole 280 g ai/ha (4×))	Resistance evaluation ([2]; topramezone 100 g ai/ha (4×))	Classification and statistics of the grade of pesticide damage Grade 0 ([2]; topramezone 100 g ai/ha (4×))	Classification and statistics of the grade of pesticide damage Grade 1 ([2]; topramezone 100 g ai/ha (4×))	Classification and statistics of the grade of pesticide damage Grade 2 ([2]; topramezone 100 g ai/ha (4×))	Classification and statistics of the grade of pesticide damage Grade 3 ([2]; topramezone 100 g ai/ha (4×))	Scores ([2]; topramezone 100 g ai/ha (4×))	Resistance evaluation ([2]; topramezone 200 g ai/ha (8×))	Classification and statistics of the grade of pesticide damage Grade 0 ([2]; topramezone 200 g ai/ha (8×))	other results
B1	Highly resistant	16	0	0	0	0	Highly resistant	14	1	1	0	6	Highly resistant	16	0	0	0	0	Highly resistant	16	Classification and statistics of the grade of pesticide damage Grade 1 ([2]; topramezone 200 g ai/ha (8×)): 0; Classification and statistics of the grade of pesticide damage Grade 2 ([2]; topramezone 200 g ai/ha (8×)): 0; Classification and statistics of the grade of pesticide damage Grade 3 ([2]; topramezone 200 g ai/ha (8×)): 0; Scores ([2]; topramezone 200 g ai/ha (8×)): 0; Resistance evaluation ([3]; mesotrione 210 g ai/ha (2×)): Highly resistant; Classification and statistics of the grade of pesticide damage Grade 0 ([3]; mesotrione 210 g ai/ha (2×)): 16; Classification and statistics of the grade of pesticide damage Grade 1 ([3]; mesotrione 210 g ai/ha (2×)): 0; Classification and statistics of the grade of pesticide damage Grade 2 ([3]; mesotrione 210 g ai/ha (2×)): 0; Classification and statistics of the grade of pesticide damage Grade 3 ([3]; mesotrione 210 g ai/ha (2×)): 0; Scores ([3]; mesotrione 210 g ai/ha (2×)): 0; Resistance evaluation ([3]; mesotrione 420 g ai/ha (4×)): Highly resistant; Classification and statistics of the grade of pesticide damage Grade 0 ([3]; mesotrione 420 g ai/ha (4×)): 16; Classification and statistics of the grade of pesticide damage Grade 1 ([3]; mesotrione 420 g ai/ha (4×)): 0; Classification and statistics of the grade of pesticide damage Grade 2 ([3]; mesotrione 420 g ai/ha (4×)): 0; Classification and statistics of the grade of pesticide damage Grade 3 ([3]; mesotrione 420 g ai/ha (4×)): 0; Scores ([3]; mesotrione 420 g ai/ha (4×)): 0
B2	Highly resistant	16	0	0	0	0	Highly resistant	13	3	0	0	6	Highly resistant	16	0	0	0	0	Highly resistant	16	Classification and statistics of the grade of pesticide damage Grade 1 ([2]; topramezone 200 g ai/ha (8×)): 0; Classification and statistics of the grade of pesticide damage Grade 2 ([2]; topramezone 200 g ai/ha (8×)): 0; Classification and statistics of the grade of pesticide damage Grade 3 ([2]; topramezone 200 g ai/ha (8×)): 0; Scores ([2]; topramezone 200 g ai/ha (8×)): 0; Resistance evaluation ([3]; mesotrione 210 g ai/ha (2×)): Highly resistant; Classification and statistics of the grade of pesticide damage Grade 0 ([3]; mesotrione 210 g ai/ha (2×)): 16; Classification and statistics of the grade of pesticide damage Grade 1 ([3]; mesotrione 210 g ai/ha (2×)): 0; Classification and statistics of the grade of pesticide damage Grade 2 ([3]; mesotrione 210 g ai/ha (2×)): 0; Classification and statistics of the grade of pesticide damage Grade 3 ([3]; mesotrione 210 g ai/ha (2×)): 0; Scores ([3]; mesotrione 210 g ai/ha (2×)): 0; Resistance evaluation ([3]; mesotrione 420 g ai/ha (4×)): Highly resistant; Classification and statistics of the grade of pesticide damage Grade 0 ([3]; mesotrione 420 g ai/ha (4×)): 16; Classification and statistics of the grade of pesticide damage Grade 1 ([3]; mesotrione 420 g ai/ha (4×)): 0; Classification and statistics of the grade of pesticide damage Grade 2 ([3]; mesotrione 420 g ai/ha (4×)): 0; Classification and statistics of the grade of pesticide damage Grade 3 ([3]; mesotrione 420 g ai/ha (4×)): 0; Scores ([3]; mesotrione 420 g ai/ha (4×)): 0

From patent US20250043302A1, “MUTATED HYDROXYPHENYLPYRUVATE DIOXYGENASE POLYPEPTIDE, AND CODING GENE AND USE THEREOF” (BEIJING DABEINONG BIOTECHNOLOGY CO., LTD., priority 2021, published 2025)
